Reference: PMC9815098 (Acta Crystallographica. Section D, Structural Biology, 2023)

Target: the molecule itself
Assay: SEC-MALS; RBP-CPN at 0.5, 1.0 and 5 mg ml^-1; Superdex 75 Increase 10/300 GL; 10 mM sodium phosphate pH 7.8, 50 mM sodium chloride, 0.02% sodium azide; room temperature; monomer to dimer

B1: RBP-CPN (permuted N-terminal lobe of the ribose-binding protein from Thermotoga maritima) (domain or fragment)
chain: MKGKMAIVISTLNNPWFVVLAETAKQRAEQLGYEATIFDSQNDTAKESAHFDAIIAAGYDAIIFNPTDADGSIANVKRAKEAGIPVFCVDRGINARGLAVAQIYSDTSTQFPKLMARLAVEWADQYLRGG
notes: residue printed between position 263 and the HHHHHH tag; source: E. coli BL21 (DE3), purified (IMAC, SEC)
stoichiometry N: 2
